From US20200317768A1 (published 2020)

T1: cynomolgus monkey FcγRIIa2 extracellular domain with C-terminal His-tag (cynomolgus monkey)
T1 construct: Expressed in FreeStyle 293 cells and purified; also called cyno FcγRIIa2; cynoFcgRIIa2; not shown: C-terminal His-tag
T1 chain: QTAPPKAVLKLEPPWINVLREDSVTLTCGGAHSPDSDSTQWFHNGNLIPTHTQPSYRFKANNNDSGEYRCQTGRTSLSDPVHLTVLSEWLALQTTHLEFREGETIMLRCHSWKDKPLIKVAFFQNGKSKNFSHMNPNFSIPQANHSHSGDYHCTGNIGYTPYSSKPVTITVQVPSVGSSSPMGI

T2: cynomolgus monkey FcγRIIb extracellular domain with C-terminal His-tag (cynomolgus monkey)
T2 construct: Expressed in FreeStyle 293 cells and purified; also called cyno FcγRIIb; cynoFcγRIIb; not shown: C-terminal His-tag
T2 chain: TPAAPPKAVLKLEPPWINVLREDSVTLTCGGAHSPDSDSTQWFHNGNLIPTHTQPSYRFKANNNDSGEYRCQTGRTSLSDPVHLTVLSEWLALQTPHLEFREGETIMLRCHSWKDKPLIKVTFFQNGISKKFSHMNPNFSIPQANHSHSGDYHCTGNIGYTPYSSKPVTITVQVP


How the values were obtained:
[1] = target: T1, cynomolgus monkey FcγRIIa2 …; experiment: SPR (Biacore), antibody captured on chip, FcgR extracellular domain as analyte, 25 C
[2] = target: T2, cynomolgus monkey FcγRIIb extracellular …; experiment: as above

| Binder | Kd [1] | Kd [2] |
| --- | --- | --- |
| M103205H795-MY172 / M103202L889-SK1 (antibody, human IgG1, kappa, Position 396 variant derived from MY052, expressed with M103202L889-SK1 as light chain) heavy: QVTLKESGPVLVKPTETLTLTCTVSGIDLSHDDISWVRQAPGKGLEWVGIISYAGSTYYASWAKGRLTISKDTSKNQVVLTMTNMDPVDTATYYCARGVPAYSHGGDLWGQGTLVTVSSASTKGPSVFPLAPSSKSTSGGTAALGCLVKDYFPEPVTVSWNSGALTSGVHTFPAVLQSSGLYSLSSVVTVPSSSLGTQTYICNVNHKPSNTKVDKKVEPKSCDKTHTCPPCPAPELLNGPSVFLFPPKPKDTLMISRTPEVTCVVVDVSEEDPEVKFNWYVDGVEVHNAKTKPREEQYNSTYRVVSVLTVLHQDWLNGKEYKCKVSNKALPAPIEKTISKAKGQPREPQVYTLPPSREEMTKNQVSLTCLVKGFYPSDIAVEWESNGQPENNYKTTPGVLDSDGSFFLYSKLTVDKSRWQQGNVFSCSVMHEALHNHYTQKSLSLSP light: DIVMTQSPATLSLSPGERATLSCTSSQSVYHANWLSWFQQKPGQPPKLLIYWASTLAYGVPSRFSGSGSGTDFTLTISSLQPEDAATYYCAGGYGGGRYAFGQGTKVEIKRTVAAPSVFIFPPSDEQLKSGTASVVCLLNNFYPREAKVQWKVDNALQSGNSQESVTEQDSKDSTYSLSSTLTLSKADYEKHKVYACEVTHQGLSSPVTKSFNRGEC | 2300 nM | 1200 nM |
| M103205H795-MY178 / M103202L889-SK1 (antibody, human IgG1, kappa, Position 396 variant derived from MY052, expressed with M103202L889-SK1 as light chain) heavy: QVTLKESGPVLVKPTETLTLTCTVSGIDLSHDDISWVRQAPGKGLEWVGIISYAGSTYYASWAKGRLTISKDTSKNQVVLTMTNMDPVDTATYYCARGVPAYSHGGDLWGQGTLVTVSSASTKGPSVFPLAPSSKSTSGGTAALGCLVKDYFPEPVTVSWNSGALTSGVHTFPAVLQSSGLYSLSSVVTVPSSSLGTQTYICNVNHKPSNTKVDKKVEPKSCDKTHTCPPCPAPELLNGPSVFLFPPKPKDTLMISRTPEVTCVVVDVSEEDPEVKFNWYVDGVEVHNAKTKPREEQYNSTYRVVSVLTVLHQDWLNGKEYKCKVSNKALPAPIEKTISKAKGQPREPQVYTLPPSREEMTKNQVSLTCLVKGFYPSDIAVEWESNGQPENNYKTTPQVLDSDGSFFLYSKLTVDKSRWQQGNVFSCSVMHEALHNHYTQKSLSLSP light: DIVMTQSPATLSLSPGERATLSCTSSQSVYHANWLSWFQQKPGQPPKLLIYWASTLAYGVPSRFSGSGSGTDFTLTISSLQPEDAATYYCAGGYGGGRYAFGQGTKVEIKRTVAAPSVFIFPPSDEQLKSGTASVVCLLNNFYPREAKVQWKVDNALQSGNSQESVTEQDSKDSTYSLSSTLTLSKADYEKHKVYACEVTHQGLSSPVTKSFNRGEC | 2100 nM | 950 nM |
| M103205H795-MY179 / M103202L889-SK1 (antibody, human IgG1, kappa, Position 396 variant derived from MY052, expressed with M103202L889-SK1 as light chain) heavy: QVTLKESGPVLVKPTETLTLTCTVSGIDLSHDDISWVRQAPGKGLEWVGIISYAGSTYYASWAKGRLTISKDTSKNQVVLTMTNMDPVDTATYYCARGVPAYSHGGDLWGQGTLVTVSSASTKGPSVFPLAPSSKSTSGGTAALGCLVKDYFPEPVTVSWNSGALTSGVHTFPAVLQSSGLYSLSSVVTVPSSSLGTQTYICNVNHKPSNTKVDKKVEPKSCDKTHTCPPCPAPELLNGPSVFLFPPKPKDTLMISRTPEVTCVVVDVSEEDPEVKFNWYVDGVEVHNAKTKPREEQYNSTYRVVSVLTVLHQDWLNGKEYKCKVSNKALPAPIEKTISKAKGQPREPQVYTLPPSREEMTKNQVSLTCLVKGFYPSDIAVEWESNGQPENNYKTTPRVLDSDGSFFLYSKLTVDKSRWQQGNVFSCSVMHEALHNHYTQKSLSLSP light: DIVMTQSPATLSLSPGERATLSCTSSQSVYHANWLSWFQQKPGQPPKLLIYWASTLAYGVPSRFSGSGSGTDFTLTISSLQPEDAATYYCAGGYGGGRYAFGQGTKVEIKRTVAAPSVFIFPPSDEQLKSGTASVVCLLNNFYPREAKVQWKVDNALQSGNSQESVTEQDSKDSTYSLSSTLTLSKADYEKHKVYACEVTHQGLSSPVTKSFNRGEC | 2000 nM | 980 nM |
| M103205H795-MY177 / M103202L889-SK1 (antibody, human IgG1, kappa, Position 396 variant derived from MY052, expressed with M103202L889-SK1 as light chain) heavy: QVTLKESGPVLVKPTETLTLTCTVSGIDLSHDDISWVRQAPGKGLEWVGIISYAGSTYYASWAKGRLTISKDTSKNQVVLTMTNMDPVDTATYYCARGVPAYSHGGDLWGQGTLVTVSSASTKGPSVFPLAPSSKSTSGGTAALGCLVKDYFPEPVTVSWNSGALTSGVHTFPAVLQSSGLYSLSSVVTVPSSSLGTQTYICNVNHKPSNTKVDKKVEPKSCDKTHTCPPCPAPELLNGPSVFLFPPKPKDTLMISRTPEVTCVVVDVSEEDPEVKFNWYVDGVEVHNAKTKPREEQYNSTYRVVSVLTVLHQDWLNGKEYKCKVSNKALPAPIEKTISKAKGQPREPQVYTLPPSREEMTKNQVSLTCLVKGFYPSDIAVEWESNGQPENNYKTTPNVLDSDGSFFLYSKLTVDKSRWQQGNVFSCSVMHEALHNHYTQKSLSLSP light: DIVMTQSPATLSLSPGERATLSCTSSQSVYHANWLSWFQQKPGQPPKLLIYWASTLAYGVPSRFSGSGSGTDFTLTISSLQPEDAATYYCAGGYGGGRYAFGQGTKVEIKRTVAAPSVFIFPPSDEQLKSGTASVVCLLNNFYPREAKVQWKVDNALQSGNSQESVTEQDSKDSTYSLSSTLTLSKADYEKHKVYACEVTHQGLSSPVTKSFNRGEC | 1800 nM | 830 nM |

Continued by falling Kd [1], values first:

| Kd [1] | Kd [2] | Binder |
| --- | --- | --- |
| 1800 nM | 780 nM | M103205H795-MY173 / M103202L889-SK1 (antibody, human IgG1, kappa, Position 396 variant derived from MY052, expressed with M103202L889-SK1 as light chain) heavy: QVTLKESGPVLVKPTETLTLTCTVSGIDLSHDDISWVRQAPGKGLEWVGIISYAGSTYYASWAKGRLTISKDTSKNQVVLTMTNMDPVDTATYYCARGVPAYSHGGDLWGQGTLVTVSSASTKGPSVFPLAPSSKSTSGGTAALGCLVKDYFPEPVTVSWNSGALTSGVHTFPAVLQSSGLYSLSSVVTVPSSSLGTQTYICNVNHKPSNTKVDKKVEPKSCDKTHTCPPCPAPELLNGPSVFLFPPKPKDTLMISRTPEVTCVVVDVSEEDPEVKFNWYVDGVEVHNAKTKPREEQYNSTYRVVSVLTVLHQDWLNGKEYKCKVSNKALPAPIEKTISKAKGQPREPQVYTLPPSREEMTKNQVSLTCLVKGFYPSDIAVEWESNGQPENNYKTTPHVLDSDGSFFLYSKLTVDKSRWQQGNVFSCSVMHEALHNHYTQKSLSLSP light: DIVMTQSPATLSLSPGERATLSCTSSQSVYHANWLSWFQQKPGQPPKLLIYWASTLAYGVPSRFSGSGSGTDFTLTISSLQPEDAATYYCAGGYGGGRYAFGQGTKVEIKRTVAAPSVFIFPPSDEQLKSGTASVVCLLNNFYPREAKVQWKVDNALQSGNSQESVTEQDSKDSTYSLSSTLTLSKADYEKHKVYACEVTHQGLSSPVTKSFNRGEC |
| 1600 nM | 650 nM | M103205H795-MY174 / M103202L889-SK1 (antibody, human IgG1, kappa, Position 396 variant derived from MY052, expressed with M103202L889-SK1 as light chain) heavy: QVTLKESGPVLVKPTETLTLTCTVSGIDLSHDDISWVRQAPGKGLEWVGIISYAGSTYYASWAKGRLTISKDTSKNQVVLTMTNMDPVDTATYYCARGVPAYSHGGDLWGQGTLVTVSSASTKGPSVFPLAPSSKSTSGGTAALGCLVKDYFPEPVTVSWNSGALTSGVHTFPAVLQSSGLYSLSSVVTVPSSSLGTQTYICNVNHKPSNTKVDKKVEPKSCDKTHTCPPCPAPELLNGPSVFLFPPKPKDTLMISRTPEVTCVVVDVSEEDPEVKFNWYVDGVEVHNAKTKPREEQYNSTYRVVSVLTVLHQDWLNGKEYKCKVSNKALPAPIEKTISKAKGQPREPQVYTLPPSREEMTKNQVSLTCLVKGFYPSDIAVEWESNGQPENNYKTTPIVLDSDGSFFLYSKLTVDKSRWQQGNVFSCSVMHEALHNHYTQKSLSLSP light: DIVMTQSPATLSLSPGERATLSCTSSQSVYHANWLSWFQQKPGQPPKLLIYWASTLAYGVPSRFSGSGSGTDFTLTISSLQPEDAATYYCAGGYGGGRYAFGQGTKVEIKRTVAAPSVFIFPPSDEQLKSGTASVVCLLNNFYPREAKVQWKVDNALQSGNSQESVTEQDSKDSTYSLSSTLTLSKADYEKHKVYACEVTHQGLSSPVTKSFNRGEC |
| 1500 nM | 710 nM | M103205H795-MY175 / M103202L889-SK1 (antibody, human IgG1, kappa, Position 396 variant derived from MY052, expressed with M103202L889-SK1 as light chain) heavy: QVTLKESGPVLVKPTETLTLTCTVSGIDLSHDDISWVRQAPGKGLEWVGIISYAGSTYYASWAKGRLTISKDTSKNQVVLTMTNMDPVDTATYYCARGVPAYSHGGDLWGQGTLVTVSSASTKGPSVFPLAPSSKSTSGGTAALGCLVKDYFPEPVTVSWNSGALTSGVHTFPAVLQSSGLYSLSSVVTVPSSSLGTQTYICNVNHKPSNTKVDKKVEPKSCDKTHTCPPCPAPELLNGPSVFLFPPKPKDTLMISRTPEVTCVVVDVSEEDPEVKFNWYVDGVEVHNAKTKPREEQYNSTYRVVSVLTVLHQDWLNGKEYKCKVSNKALPAPIEKTISKAKGQPREPQVYTLPPSREEMTKNQVSLTCLVKGFYPSDIAVEWESNGQPENNYKTTPKVLDSDGSFFLYSKLTVDKSRWQQGNVFSCSVMHEALHNHYTQKSLSLSP light: DIVMTQSPATLSLSPGERATLSCTSSQSVYHANWLSWFQQKPGQPPKLLIYWASTLAYGVPSRFSGSGSGTDFTLTISSLQPEDAATYYCAGGYGGGRYAFGQGTKVEIKRTVAAPSVFIFPPSDEQLKSGTASVVCLLNNFYPREAKVQWKVDNALQSGNSQESVTEQDSKDSTYSLSSTLTLSKADYEKHKVYACEVTHQGLSSPVTKSFNRGEC |
| 1400 nM | 620 nM | M103205H795-MY176 / M103202L889-SK1 (antibody, human IgG1, kappa, Position 396 variant derived from MY052, expressed with M103202L889-SK1 as light chain) heavy: QVTLKESGPVLVKPTETLTLTCTVSGIDLSHDDISWVRQAPGKGLEWVGIISYAGSTYYASWAKGRLTISKDTSKNQVVLTMTNMDPVDTATYYCARGVPAYSHGGDLWGQGTLVTVSSASTKGPSVFPLAPSSKSTSGGTAALGCLVKDYFPEPVTVSWNSGALTSGVHTFPAVLQSSGLYSLSSVVTVPSSSLGTQTYICNVNHKPSNTKVDKKVEPKSCDKTHTCPPCPAPELLNGPSVFLFPPKPKDTLMISRTPEVTCVVVDVSEEDPEVKFNWYVDGVEVHNAKTKPREEQYNSTYRVVSVLTVLHQDWLNGKEYKCKVSNKALPAPIEKTISKAKGQPREPQVYTLPPSREEMTKNQVSLTCLVKGFYPSDIAVEWESNGQPENNYKTTPLVLDSDGSFFLYSKLTVDKSRWQQGNVFSCSVMHEALHNHYTQKSLSLSP light: DIVMTQSPATLSLSPGERATLSCTSSQSVYHANWLSWFQQKPGQPPKLLIYWASTLAYGVPSRFSGSGSGTDFTLTISSLQPEDAATYYCAGGYGGGRYAFGQGTKVEIKRTVAAPSVFIFPPSDEQLKSGTASVVCLLNNFYPREAKVQWKVDNALQSGNSQESVTEQDSKDSTYSLSSTLTLSKADYEKHKVYACEVTHQGLSSPVTKSFNRGEC |
